# Assay results reported in patent publication US20240368283A1.
# Assays:
# human FcγRIIβ (human) = human FcγRIIβ (human) (UniProt P31994); test: SPR, antibody captured on ProA/G HC30M chip, recombinant human FcγRIIβ injected (4 nM-5 uM); average kinetic KD
# Hu FcγRIIA_R131 (human) = Hu FcγRIIA_R131 (human) (UniProt P12318); test: SPR-type chip kinetics; antibody captured on protein A/G chip, receptor as analyte
# Hu FcγRIIA_H131 (human) = Hu FcγRIIA_H131 (human) (UniProt P12318); test: as above
# Chain of Hu FcγRIIA_H131 (human) (P12318 36-218 limits assumed): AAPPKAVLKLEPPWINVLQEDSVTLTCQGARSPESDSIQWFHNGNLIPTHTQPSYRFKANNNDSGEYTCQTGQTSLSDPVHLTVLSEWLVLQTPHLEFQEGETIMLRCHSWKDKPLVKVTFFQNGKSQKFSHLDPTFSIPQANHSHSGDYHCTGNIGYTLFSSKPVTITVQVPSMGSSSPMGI
# Chain of human FcγRIIβ (human) (P31994 46-217 limits assumed): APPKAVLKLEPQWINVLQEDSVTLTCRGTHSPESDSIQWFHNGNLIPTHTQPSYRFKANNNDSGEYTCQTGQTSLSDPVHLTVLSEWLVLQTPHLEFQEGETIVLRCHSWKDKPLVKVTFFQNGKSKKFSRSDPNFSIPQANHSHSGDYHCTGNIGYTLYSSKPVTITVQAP
# Chain of Hu FcγRIIA_R131 (human) (P12318 36-218 H167R limits assumed): as the sequence (P12318 36-218 limits assumed) above, with H132R counted along it
Kd (human FcγRIIβ (human)),Kd (Hu FcγRIIA_R131 (human)),Kd (Hu FcγRIIA_H131 (human)),Substance
0.407 nM,,,2B6 (antibody)
,1550 nM,1000 nM,IgG1 WT (antibody)
